Test results published in PMC8458281, “Computational modeling and experimental validation of the EPI-X4/CXCR4 complex allows rational design of small peptide antagonists” (Communications Biology, 2021).

B1: EPI-X4 JM#21 [human] / CXCR4 wt (transfected 293T cells) [human] (parent complex)
chain 1: ILRWSRKLPCVS
chain 2: MEGISIYTSDNYTEEMGSGDYDSMKEPCFREENANFNKIFLPTIYSIIFLTGIVGNGLVILVMGYQKKLRSMTDKYRLHLSVADLLFVITLPFWAVDAVANWYFGNFLCKAVHVIYTVNLYSSVLILAFISLDRYLAIVHATNSQRPRKLLAEKVVYVGVWIPALLLTIPDFIFANVSEADDRYICDRFYPNDLWVVVFQFQHIMVGLILPGIVILSCYCIIISKLSHSKGHQKRKALKTTVILILAFFACWLPYYIGISIDSFILLEIIKQGCEFENTVHKWISITEALAFFHCCLNPILYAFLGAKFKTSAQHALTSVSRGSSLKILSKGKRGGHSSVSTESESSSFHSS
B2: WSC02 [human] / CXCR4 wt (transfected 293T cells) [human] (parent complex)
chain 1: IVRWSKKVPCVS
chain 2: B1 chain 2

Variants of: B1
Assay: 12G5 antibody competition assay, flow cytometry on transfected 293T cells; 2 h incubation; IC50 set to 100 µM if above the maximally used concentration; parent: 620 nM; read off a plot

IC50 [nM] | Variant
~220 | chain 2 MEGISIYTSDNYTEEMGSGDYDSMKEPCFREENANFNKIFLPTIYSIIFLTGIVGNGLVILVMGYQKKLRSMTDKYRLHLSVADLLFVITLPFWAVDAVANWYFGNFLCKAVHVIYTVNLYSSVLILAFISLDRYLAIVHATNSQRPRKLLAEKVVYVGVWIPALLLTIPDFIFANVSEADDRYICDRFYPNDLWVVVFQFQHIMVGLILPGIVILSCYCIIISKLSHSKGHQKRKALKTTVILILAFFACWLPYYIGISIASFILLEIIKQGCEFENTVHKWISITEALAFFHCCLNPILYAFLGAKFKTSAQHALTSVSRGSSLKILSKGKRGGHSSVSTESESSSFHSS [chain 2 D262A]
~8000 | chain 2 MEGISIYTSDNYTEEMGSGDYDSMKEPCFREENANFNKIFLPTIYSIIFLTGIVGNGLVILVMGYQKKLRSMTDKYRLHLSVADLLFVITLPFWAVQAVANWYFGNFLCKAVHVIYTVNLYSSVLILAFISLDRYLAIVHATNSQRPRKLLAEKVVYVGVWIPALLLTIPDFIFANVSEADDRYICDRFYPNDLWVVVFQFQHIMVGLILPGIVILSCYCIIISKLSHSKGHQKRKALKTTVILILAFFACWLPYYIGISIDSFILLEIIKQGCEFENTVHKWISITEALAFFHCCLNPILYAFLGAKFKTSAQHALTSVSRGSSLKILSKGKRGGHSSVSTESESSSFHSS [chain 2 D97Q]
~650 | chain 2 MEGISIYTSDNYTEEMGSGDYDSMKEPCFREENANFNKIFAPTIYSIIFLTGIVGNGLVILVMGYQKKLRSMTDKYRLHLSVADLLFVITLPFWAVDAVANWYFGNFLCKAVHVIYTVNLYSSVLILAFISLDRYLAIVHATNSQRPRKLLAEKVVYVGVWIPALLLTIPDFIFANVSEADDRYICDRFYPNDLWVVVFQFQHIMVGLILPGIVILSCYCIIISKLSHSKGHQKRKALKTTVILILAFFACWLPYYIGISIDSFILLEIIKQGCEFENTVHKWISITEALAFFHCCLNPILYAFLGAKFKTSAQHALTSVSRGSSLKILSKGKRGGHSSVSTESESSSFHSS [chain 2 L41A]
~380 | chain 2 MEGISIYTSDNYTEEMGSGDYDSMKEPCFREENANFNKIFLPTIYSIIFLTGIVGNGLVILVMGYQKKLRSMTDKYRLHLSVADLLFVITLPFWAVEAVANWYFGNFLCKALHVIYTVNLYSSVLILAFISLDRYLAIVHATNSQRPRKLLAEKVVYVGVWIPALLLTIPDFIFANVSEADDRYICDRFYPNDLWVVVFQFQHIMVGLILPGIVILSCYCIIISKLSHSKGHQKRKALKTTVILILAFFACWLPYYIGISIDSFILLEIIKQGCEFENTVHKWISITEALAFFHCCLNPILYAFLGAKFKTSAQHALTSVSRGSSLKILSKGKRGGHSSVSTESESSSFHSS [chain 2 D97E, chain 2 V112L]

Variants of: B2
Assay: 12G5 antibody competition assay, flow cytometry on transfected 293T cells; 2 h incubation; IC50 set to 1000 µM if above the maximally used concentration; parent: 1e+03 nM; read off a plot

IC50 [nM] | Variant
~1700 | chain 2 MEGISIYTSDNYTEEMGSGDYDSMKEPCFREENANFNKIFLPTIYSIIFLTGIVGNGLVILVMGYQKKLRSMTDKYRLHLSVADLLFVITLPFWAVEAVANWYFGNFLCKALHVIYTVNLYSSVLILAFISLDRYLAIVHATNSQRPRKLLAEKVVYVGVWIPALLLTIPDFIFANVSEADDRYICDRFYPNDLWVVVFQFQHIMVGLILPGIVILSCYCIIISKLSHSKGHQKRKALKTTVILILAFFACWLPYYIGISIDSFILLEIIKQGCEFENTVHKWISITEALAFFHCCLNPILYAFLGAKFKTSAQHALTSVSRGSSLKILSKGKRGGHSSVSTESESSSFHSS [chain 2 D97E, chain 2 V112L]
~1700 | chain 2 MEGISIYTSDNYTEEMGSGDYDSMKEPCFREENANFNKIFLPTIYSIIFLTGIVGNGLVILVMGYQKKLRSMTDKYRLHLSVADLLFVITLPFWAVEAVANWYFGNFLCKAAHVIYTVNLYSSVLILAFISLDRYLAIVHATNSQRPRKLLAEKVVYVGVWIPALLLTIPDFIFANVSEADDRYICDRFYPNDLWVVVFQFQHIMVGLILPGIVILSCYCIIISKLSHSKGHQKRKALKTTVILILAFFACWLPYYIGISIDSFILLEIIKQGCEFENTVHKWISITEALAFFHCCLNPILYAFLGAKFKTSAQHALTSVSRGSSLKILSKGKRGGHSSVSTESESSSFHSS [chain 2 D97E, chain 2 V112A]
~4800 | chain 2 MEGISIYTSDNYTEEMGSGDYDSMKEPCFREENANFNKIFAPTIYSIIFLTGIVGNGLVILVMGYQKKLRSMTDKYRLHLSVADLLFVITLPFWAVDAVANWYFGNFLCKAAHVIYTVNLYSSVLILAFISLDRYLAIVHATNSQRPRKLLAEKVVYVGVWIPALLLTIPDFIFANVSEADDRYICDRFYPNDLWVVVFQFQHIMVGLILPGIVILSCYCIIISKLSHSKGHQKRKALKTTVILILAFFACWLPYYIGISIDSFILLEIIKQGCEFENTVHKWISITEALAFFHCCLNPILYAFLGAKFKTSAQHALTSVSRGSSLKILSKGKRGGHSSVSTESESSSFHSS [chain 2 L41A, chain 2 V112A]
~400 | chain 2 MEGISIYTSDNYTEEMGSGDYDSMKEPCFREENANFNKIFLPTIYSIIFLTGIVGNGLVILVMGYQKKLRSMTDKYRLHLSVADLLFVITLPFWAVDAVANWYFGNFLCKALHVIYTVNLYSSVLILAFISLDRYLAIVHATNSQRPRKLLAEKVVYVGVWIPALLLTIPDFIFANVSEADDRYICDRFYPNDLWVVVFQFQHIMVGLILPGIVILSCYCIIISKLSHSKGHQKRKALKTTVILILAFFACWLPYYIGISIDSFILLEIIKQGCEFENTVHKWISITEALAFFHCCLNPILYAFLGAKFKTSAQHALTSVSRGSSLKILSKGKRGGHSSVSTESESSSFHSS [chain 2 V112L]
~600 | chain 2 MEGISIYTSDNYTEEMGSGDYDSMKEPCFREENANFNKIFLPTIYSIIFLTGIVGNGLVILVMGYQKKLRSMTDKYRLHLSVADLLFVITLPFWAVDAVANWYFGNFLCKAAHVIYTVNLYSSVLILAFISLDRYLAIVHATNSQRPRKLLAEKVVYVGVWIPALLLTIPDFIFANVSEADDRYICDRFYPNDLWVVVFQFQHIMVGLILPGIVILSCYCIIISKLSHSKGHQKRKALKTTVILILAFFACWLPYYIGISIDSFILLEIIKQGCEFENTVHKWISITEALAFFHCCLNPILYAFLGAKFKTSAQHALTSVSRGSSLKILSKGKRGGHSSVSTESESSSFHSS [chain 2 V112A]
